T1: amphyphisin SH3 (AMPH_HUMAN), P49418
T1 chain: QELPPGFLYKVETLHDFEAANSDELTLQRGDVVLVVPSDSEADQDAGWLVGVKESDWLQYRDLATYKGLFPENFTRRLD


How the values were obtained:
[1] = target: T1, amphyphisin SH3 (AMPH_HUMAN), P49418; test: SPOT array
[2] = target: endophilin SH3 (SH3G2_HUMAN), Q99962; test: SPOT array

Binder | normalised SPOT signal, Boehringer light units (BLU); mean over the file's lines of this peptide [1] | normalised SPOT signal, Boehringer light units (BLU); mean over the file's lines of this peptide [2]
EQKRPLRPRRKGRK [Q9P2K1 987-1000] | 11900 | 1010
EQGGLLRPERDHVE [Q9ULV5 88-101] | 79.3 | 66.9
AGPRLPRPPREGST [Q9H224 58-71] | 2230 | 1130
EQYIPSRPLKTQEL [Q9Y259 145-158] | 32.2 | 159
EPPPPQKPPPPNSK [Q03111 455-469] | 44.4 | 2240
ESSGPPRPSRGPAA [Q9UHD9 6-19] | 2690 | 295
EQVDLIRPWRRLLE [Q9NU22 852-865] | 131 | 147
EQRPLKRPRLGPPD [Q96PC8 10-23] | 31 | 446
ENDNIERPVRRRHS [Q9NR92 11-24] | 88.7 | 59.3
ETNIPQRPSRPARR [Q9HBL3 239-252] | 20700 | 1800
EMTPPPKPPRLYLP [Q9UM03 505-519] | 1820 | 601
EQPPPGRPPLRLED [Q9Y334 62-76] | 33.6 | 92.4
EMEPPPKPPRSSSA [Q9H7I0 90-104] | 4690 | 298
ETMYLRRPEGIERQ [Q9H5V9 75-88] | 20.5 | 128
ESRDITRPSRPADL [Q9Y6Z1 10-23] | 192 | 134
ELPRPRRPPLQWRY [Q9NSY0 103-117] | 1080 | 5930
EPPAPRRPASLAQR [Q9NP57 254-267] | 37.1 | 831
EREALKRPMGPVHY [Q9P0R4 128-141] | 11.6 | 50.5
ELTIIERPVRRSLK [Q9HCF0 45-58] | 700 | 61.6
ETLTFKRPEGMHRE [Q9NPF5 43-56] | 29.5 | 0

Continued, values first:

normalised SPOT signal, Boehringer light units (BLU); mean over the file's lines of this peptide [1] | normalised SPOT signal, Boehringer light units (BLU); mean over the file's lines of this peptide [2] | Binder
23.2 | 66.5 | AGSDPKRPEMPSKK [P23470 686-699]
39.3 | 332 | ESPPPKRPRIAYLS [P36508 395-408]
203 | 805 | AGPRPRRPGSLPGW [Q14333 377-390]
129 | 178 | ELYLLFRPFKGYEG [Q93062 39-52]
42 | 49.5 | ESQSPKRPPEDFET [Q16632 163-177]
539 | 192 | ESRDITRPSRPASY [O60298 756-769]
42.3 | 4.5 | ERDFLKRPLESYVK [Q10472 159-172]
8960 | 1950 | ESGRPIKPPRKDLP [P25440 318-332]
4090 | 220 | ETISPLRPQRPKSQ [Q14185 1731-1744]
52.8 | 96.9 | ESSRPVKPPKKDVP [O60885 322-336]
145 | 158 | EMPHLARPIKVESP [Q08050 469-482]
50.4 | 22.2 | ENESPLKPPGISMD [Q92610 35-49]
-0 | -0 | ELYPISRPLKKTWE [Q15047 309-322]
40 | 36.9 | ELPRPRRPPPEDEE [P22460 83-97]
23200 | 8150 | ESPLPRRPPRAARS [P81408 388-402]
334 | 108 | EREFLERPSRDHLY [Q12968 137-150]
374 | 59.4 | EPGLPVRPPGGGQS [O95954 457-471]
92.2 | 2690 | ERPPPFKPPPPPIK [P40200 535-549]
4.3 | 0 | EQFKIKRPAAWVDL [O43301 404-417]
47.3 | 86.4 | EQGSLKRPVSRKVG [O15021 1020-1033]
39.4 | 127 | ETGALRRPQLLPLL [O60896 2-15]
104 | 40.1 | EPEEPKRPVPAERG [Q16584 619-632]

From paper PMC314469, “Protein Interaction Networks by Proteome Peptide Scanning” (PLoS Biology, 2004)
